Laboratory results taken from PMC8560993.

Columns and labels:
F-actin (rabbit) [1] = target: F-actin (rabbit) (UniProt P68135)
[2] = target: Regulated thin filaments (TRITC-actin with skeletal tropomyosin and troponin) (rabbit | not stated) (UniProt P68135)
F-actin (rabbit) [3] = target: F-actin (rabbit) (UniProt P68135); remark: listed apart in the source
F-actin (rabbit) [4] = target: F-actin (rabbit) (UniProt P68135); remark: listed apart in the source
F-actin (rabbit) [5] = target: F-actin (rabbit) (UniProt P68135); remark: listed apart in the source
F-actin (rabbit) [6] = target: F-actin (rabbit) (UniProt P68135); remark: listed apart in the source

- KM for F(N): N at half-maximal V(N) against a mechanical load of 0.5 μg/ml α-actinin on the motility surface (F-actin (rabbit) [1]): 16
- KM for F(N): N at half-maximal V(N) against a mechanical load of 1.0 μg/ml α-actinin on the motility surface (F-actin (rabbit) [1]): 38
- KM for V: N (myosin per μm actin; N equals μg/ml myosin incubated) at half-maximal actin sliding velocity V(N), in vitro motility assay, 50 mM KCl, 30 °C (F-actin (rabbit) [1]): 16
- KM for V: N at half-maximal actin sliding velocity V(N), in vitro motility assay, 100 mM KCl, 30 °C (F-actin (rabbit) [1]): 17
- KM for v: N at half-maximal actin-activated ATPase activity v(N), measured in a motility flow cell, 50 mM KCl, 30 °C (F-actin (rabbit) [1]): 46
- KM for v: N at half-maximal actin-activated ATPase activity v(N), measured in a motility flow cell, 100 mM KCl, 30 °C (F-actin (rabbit) [1]): 23
- pseudo KM for pCa50: half the N at which the pCa50 of thin filament sliding velocity saturates, in vitro motility assay, 50 mM KCl [2]: 24
- pseudo KM for pCa50: half the N at which the pCa50 of thin filament sliding velocity saturates, in vitro motility assay, 100 mM KCl [2]: 26
- KM: N at half-maximal V(N), in vitro motility assay, control without α-actinin (Figure 5A) (F-actin (rabbit) [3]): 19
- inhibition of actin-activated ATPase activity (N = 5, 1.0 μM actin; v from 0.59 to 0.26 μM Pi/min) by the load of 1.0 μg/ml α-actinin on the motility surface (F-actin (rabbit) [4]): 55%
- KM: N at half-maximal V(N), in vitro motility assay, control without (-)-blebbistatin (Figure 2D) (F-actin (rabbit) [5]): 16.1
- KM: N at half-maximal V(N), in vitro motility assay, with 10 μM (-)-blebbistatin (Figure 2D) (F-actin (rabbit) [5]): 13.3
- KM: N at half-maximal V(N), in vitro motility assay, with 50 μM (-)-blebbistatin (Figure 2D) (F-actin (rabbit) [5]): 6.4
- actin activation of the ATPase activity of surface-bound myosin at low N in a motility flow cell (0.15 μM actin, Figure 3) (F-actin (rabbit) [6]): 4 fold
Substance: Skeletal muscle myosin (from UniProt Q28641 1-1938) (complex)
